What was measured:
[1] = molecular target: T1, recombinant toxoid variant of the LukAB protein (LukA E323A) with poly-histidine and streptavidin binding … (Staphylococcus aureus, UniProt Q2FFA2 31-351; P21224 30-338); assay: ELISA, biotinylated LukAB toxoid on streptavidin plate, mAb titrated
T1 construct: also called LukAB toxoid protein; biotinylated LukAB

[2] = molecular target: T2, recombinant derivative of the LukE protein (SEQ ID NO: 826) with amino-terminal poly-histidine affinity tag (Staphylococcus aureus, UniProt Q2FXB0 24-306); assay: BLI, sequential binding
T2 construct: not biotinylated in HDX-MS and neutralization assays; also called biotinylated LukE; LukE antigen
T2 sequence: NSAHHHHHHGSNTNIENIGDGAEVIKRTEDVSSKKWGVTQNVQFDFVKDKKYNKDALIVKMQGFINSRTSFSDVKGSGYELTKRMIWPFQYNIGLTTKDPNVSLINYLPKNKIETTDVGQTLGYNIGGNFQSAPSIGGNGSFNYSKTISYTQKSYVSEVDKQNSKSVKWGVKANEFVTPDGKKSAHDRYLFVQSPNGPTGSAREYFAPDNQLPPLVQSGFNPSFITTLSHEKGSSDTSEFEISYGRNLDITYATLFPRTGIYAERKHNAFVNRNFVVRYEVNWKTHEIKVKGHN

[3] = molecular target: T2, recombinant derivative of the LukE …; assay: HDX-MS, Fab with LukE in solution
[4] = molecular target: T2, recombinant derivative of the LukE …; assay: ELISA, biotinylated LukE on streptavidin plate, mAb titrated
[5] = molecular target: T3, recombinant derivative of the LukD protein (SEQ ID NO: 824) with amino-terminal polyhistidine affinity tag, … (Staphylococcus aureus, UniProt Q2FXB1 27-327, chemically biotinylated in vitro (sites not given)); assay: ELISA, biotinylated LukD on streptavidin plate, mAb titrated
T3 construct: it carries the N-terminal His tag; also called biotinylated LukD; LukD antigen
T3 sequence: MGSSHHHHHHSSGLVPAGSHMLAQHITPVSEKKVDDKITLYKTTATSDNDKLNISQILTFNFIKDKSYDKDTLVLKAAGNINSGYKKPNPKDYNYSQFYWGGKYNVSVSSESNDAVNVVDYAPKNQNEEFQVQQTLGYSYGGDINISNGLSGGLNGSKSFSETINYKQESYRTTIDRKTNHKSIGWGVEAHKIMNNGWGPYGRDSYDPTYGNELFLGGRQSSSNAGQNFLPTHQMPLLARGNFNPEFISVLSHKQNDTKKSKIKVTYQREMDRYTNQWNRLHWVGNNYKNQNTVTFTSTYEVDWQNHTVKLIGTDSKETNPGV

B1: anti-LukAB mAb SM1B245 (antibody, mouse IgG2a, kappa, V domains shown)
VH: QVQLQQSGAELAKPGASVKMSCKSSGYTFSTYWMHWVKQRPGQGLEWIGYINPNTGYTEYNQKFKDTATLTADKSSSTAYMQLSSLTSEDSAVYYCARGGSKAFPYYAMDYWGQGTSVTVSS
VL: DIVLTQSPASLAVSLGQRATMSCRASESVDGYGNSFLHWYQQKPGQPPKLLIYRASNLESGIPARFSGTGSRTDFTLTITPVEADDVATYYCQQSNGDPFTFGSGTKLEIKR
Question: Does B1 bind [1]?
Answer: binds

B2: anti-LukE mAb SM1B507 (antibody, mouse IgG1, kappa)
heavy: EVQLQQSGAELVKPGASVKMSCKASGYTFTDYYMDWVKQSHGKSFEWIGHVNPYNGDTRYNQKFKGKATLTVDKSSTTAYMELNSLTSEDSAVYYCARGNFFDYWGQGTTLSVSSAKTTPPSVYPLAPGSAAQTNSMVTLGCLVKGYFPEPVTVTWNSGSLSSGVHTFPAVLESDLYTLSSSVTVPSSPRPSETVTCNVAHPASSTKVDKKIVPRDCGCKPCICTVPEVSSVFIFPPKPKDVLTITLTPKVTCVVVDISKDDPEVQFSWFVDDVEVHTAQTQPREEQFNSTFRSVSELPIMHQDWLNGKEFKCRVNSAAFPAPIEKTISKTKGRPKAPQVYTIPPPKEQMAKDKVSLTCMITDFFPEDITVEWQWNGQPAENYKNTQPIMNTNGSYFVYSKLNVQKSNWEAGNTFTCSVLHEGLHNHHTEKSLSHSPGK
light: DIVMTQSPAIMSASPGEKVTIPCSASSSVSYMHWFQQKPGTSPKLWIYSTSNLASGVPGRFSGSGSGTSYSLTISRMEAEDAATYYCQQRSNYPLTFGAGTKLELKRADAAPTVSIFPPSSEQLTSGGASVVCFLNNFYPKDINVKWKIDGSERQNGVLNSWTDQDSKDSTYSMSSTLTLTKDEYERHNSYTCEATHKTSTSPIVKSFNRNEC
Question: Does B2 bind [2]?
Answer: binds

B3: Fab SM1B709 (the Fab corresponding to mAb SM1B507) (Fab, V domains shown)
VH: EVQLQQSGAELVKPGASVKMSCKASGYTFTDYYMDWVKQSHGKSFEWIGHVNPYNGDTRYNQKFKGKATLTVDKSSTTAYMELNSLTSEDSAVYYCARGNFFDYWGQGTTLSVSS
VL: DIVMTQSPAIMSASPGEKVTIPCSASSSVSYMHWFQQKPGTSPKLWIYSTSNLASGVPGRFSGSGSGTSYSLTISRMEAEDAATYYCQQRSNYPLTFGAGTKLELKR
Question: Does B3 bind [3]?
Answer: binds

B4: anti-LukE mAb SM1B332 (antibody, mouse IgG2a, kappa, V domains shown)
VH: QVQLKESGPGLVAPSQSLSITCTVSGLSLTSYGLSWVRQPPGKGLEWLGVIWGDGSTNYHSALISRLSISKDNSKSQVFLKLNSLQSDDTATYYCATRGDYGSYAMDYWGQGTSVTVSS
VL: QIVLTQSPAIMSASPGEKVTLTCSASSSVSSSYLFWYQQKPGSSPKLWIYSTSNLASGVPVRFSGSGFGTSYSLTISRMEAEDAASYFCHQWSSYPPTFGAGTKLELKR
Question: With B4 as the binder, how does the EC50 [4] read?
Answer: ~0.05 µg/mL

B5: anti-LukAB mAb SM1B252 (antibody, mouse IgG2a, kappa, V domains shown)
VH: QVQLQQSGAELMKPGASVKISCKASGYTFSDYWIEWIKQRPGHGLEWMGEILPGSDKTNYNEKFKGKATFTADSSSNTAYMQLNSLTSEDSAVFYCATAGDDYVKWGQGTLVTVSA
VL: DVLMTQTPLSLPVSLGDQASISCRSSQSIVYSNGNTYLEWYLQKPGQSPKLLIYKVSNRFSGVPDRFSGSGSGTDFTLKISRVEAEDLGVYYCFQGSHVPFTFGSGTKLEIKR
Question: Does B5 bind [1]?
Answer: binds

B6: anti-LukE mAb SM1B318 (antibody, mouse IgG2a, kappa, V domains shown)
VH: QVQLQQSGAELMNPGASVKISCKSTGYKFSSYWIEWVKQRPGHGLEWMGEILPGSGSTNHNEKFKGKAIFTADASSNTAYMELSSLTSEDSAVYYCARTISTATDWFAYWGQGTLVTVSA
VL: DVLMTQTPLSLPVSLGDQASISCRSSQTIVYSDGNTYLEWYLQKPGQSPKLLIYKVSNRFSGVPDRVSGSGSGTDFTLKISRVEAEDLGVYYCFQGSHVPYTFGGGTKLEIKR
Question: Does B6 bind [4]?
Answer: binds

B7: Fab SM1B438 (the Fab corresponding to mAb SM1B318) (Fab, V domains shown)
VH: QVQLQQSGAELMNPGASVKISCKSTGYKFSSYWIEWVKQRPGHGLEWMGEILPGSGSTNHNEKFKGKAIFTADASSNTAYMELSSLTSEDSAVYYCARTISTATDWFAYWGQGTLVTVSA
VL: DVLMTQTPLSLPVSLGDQASISCRSSQTIVYSDGNTYLEWYLQKPGQSPKLLIYKVSNRFSGVPDRVSGSGSGTDFTLKISRVEAEDLGVYYCFQGSHVPYTFGGGTKLEIKR
Question: Does B7 bind [3]?
Answer: binds

B8: anti-LukAB mAb SM1B111 (antibody, V domains shown)
VH: EVQLQQSGAELVKPGASVKISCKASGYAFSSSWMNWLKQRPGKGLEWIGRIYPGDGDTNYNGKFKGKATLTADKSSSTAYMQLSSLTSEDSAVYFCARYGYDYDGEYYYAMDYWGQGTSVTVSS
VL: DIVMTQSPTTMAASPGERITITCSAHSNLISNYLHWYQQKPGFSPKLLIYRTSNLASGVPARFSGSGSGTSYSLTIGTMEAEDVATYFCQQGSSIPFTFGSGTKLEIKR
Question: Does B8 bind [1]?
Answer: binds

B9: antibody SM1B225 (antibody, V domains shown)
VH: EVQLQQSGGGLVKPGGSLKLSCAASGFTFSSYAMSWVRQTPEKRLEWVATITGGGTYTYYLDSVKGRFTISRDNAKTSLYLQMSSLRSEDTAMYYCARHRDGNYGCFDVWGAGTTVTVSS
VL: DIVLTQSPAIMSASLGERVTMTCTASSSVSSSYLHWYQQKPGSSPKLWVYSTSNLASGVPARFSGSGSGSSYSLTISSMEPEDTATYYCHQYHRSPQTFGGGTKLEIKR
notes: also called anti-LukD mAb SM1B225
Question: How did the EC50 [5] turn out when B9 was run?
Answer: 0.01 to 0.2 µg/mL

From patent US20200317758A1 (NEW YORK UNIVERSITY, published 2020)
